Source: the DeepSol protein solubility set

test: soluble on expression in E. coli; label from the status in PepcDB or PDB records

Soluble on expression in E. coli, not soluble:
MGSDKIHHHHHHMQGSRFAFGPFVLDPGAGTLLRNDDPVAVGYRGLKLLAALVGRPGEILEKAELMDAAWPGTAVEEGNLTVQIAQLRKLLGPPADGGEWISTVPRVGYRFTGAIEQLDRAKRKPLPLPDKPSIAVLPFVNLSNDPEQEAFADGLTEDLITDLSRAPGLFVIARNSTFAYKGKAMDVRAIAEELGVRYLLEGSARRAAGRVRINAQLVDAKSGEHLWAERFDRGLDDIFAVQDEATAKIVEALLGRLRAPPPRNRPTNLEAYDLCVRARKLIEESPQTAREAHLLLTRAVSLDPEYAEAHRWLAMNHWMGWVHWGEPVDPNRRIALELARKAVAIDPNDAGCRWVLGNLLAYEHSFEESEAEFAKAFELDPNEADAWATLSDIAVLAGRVEEGLEHIRKAFRLNPYPASWYYLTLGEAQYAARDYEAAVETLRREETYRTSSRRFLAASLAQLGRLDEARAEVEMFLIGNPHFTTSYWVWTEPFRDDAMRDHFVDGFRKAGLPD
MGSDKIHHHHHHMQILFFMKIIRDPIHGYIEVEDFVLQIISTEIFQRLRHITQTGLAYLVYPGMRHTRFEHSLGVMHLAKELTRYIKINSEQYTDLDFINEEYLKLVGLSGLLHDIGHLPFSHTFENALSLAKEVYGIDVEYYGKKTHVIFGNRVIDYYLGNYLDKLSKNYDVVNFVQRVISSTPRTKEESLASLIISSPLDADRGDYLLRDSYFAGVGYGNFDIERIKRSLIYVNGKLAVLKKAIPVVEQFLLARMYMYETIYFHSVVGLYNAVLSHAVVKLIQKNLIPNVAPENYLKLNDVVIMSKLNEAGREFFDAIVYRKGFKRYKKDLTGNCYETLEKKRKEINEIMRENNGLILYHDFYDVPYSEDEIFVYDDDELKPLSTESKIVSSLTIIKKGIVGYHESAEDKMKKIYEILQECPL
MGSDKIHHHHHHMQINRLTLTNFRGLTNSVLDFAPGFNLVVGVNGVGKTAVLEALRILLAKALPSFAEVRGFPGIGLTKDDITIDRKQAAIEVSFTHQAHTFSLLLSDQLEVVRDAVDEQKGLKDIRDIDELASLRHGQRPERGDPRLEGTLRGQTSERPRASGQLSPTPDRALKKSKPQPIVLYFSVRRAVPSPGTPKTKAGTPYQGIFEIERGLELGKIIEWWNSKATVAREAPDSRSAKQLTTTCNALERLLPHLSDWKVEDGNFTVCKVADVGVLNDESGEFEVKQETRRLPVQFLSDGERSLIAIGIDIAYRLASLNEDSETPLDDGEGIVLIDELDLHLHPQWQRTVVELLRTAFPKLQFICTTHSLFLIQSQRMGNLIQLDRIGDEEESAEQYHNQSIEDIAEEVQGIDLPQRSKRHVELMLAASEYYRALKKAEDDPNIPIEELKEKYEALSLRYSADPLVAAALDFRWETFVFKRNHATRR
MGSDKIHHHHHHMQLDKYTAKKIVKRAMKIIHHSVNVMDHDGVIIASGNSTRLNQRHTGAVLALRENRVVEIDQALAQKWNFEAQPGINLPIHYLGKNIGVVGISGEPTQVKQYAELVKMTAELIVEQQALLEQESWHRRYKEEFILQLLHCNLNWKEMEQQAKFFSFDLNKSRVVVLIKLLNPALDNLQNLINYLEQSEFAQDVAILSLDQVVVLKTWQNSTVLSAQMKTLLPADYSKQDYKIAVGACLNLPLFEQLPLSFQSAQSTLSYGLKHHPRKGIYVFDEHRLPVLLAGLSHSWQGNELIKPLSPLFSEENAILYKTLQQYFLSNCDLYLTAEKLFVHPNTLRYRLNKIEQITGLFFNKIDDKLTLYLGTLLEH
MGSDKIHHHHHHMQLKNVQRSYALTLGEKTGSTINVGVFAQKRAKKCTQAPLSIILELSRNKERIGAACTMNFTMDLPGLKGVKVTKMEEREDFIALHVEMPRTPHRCPSCGERTERIHDYRIQKVQHLKLFERWVYLFYRKRRYACRCGKRFAEKACFVERYQRQTVEWNQAFRLRLIQGKNFTDTANQFQTSVTTAMRRFDQLAAPLVKKVDHLPPRIAIDDYKGDTNAGKYQVIIADADTRKPLDILPDRKADTLKRYLQEKGHHVKTVVMDLSYTFKSAVQKALGHPLIIGDPFHFCRYIYWALEGVRRRVQKAFHPYHRKRCKRIKHLFQKEREGLDDKQKKKVERYLELSPDLREAYELKEHFRQWYQEAKMQGREGRMSEVKQGLYAFYRRVEASPLKEFHRAIQTLKNWQTEILNSFAFGLNNGFIEGLNNQTKVIKRNAFGFRRYDRLRNRILLHHQFKHQTFGVG
MGSDKIHHHHHHMQLKPLLRQLATTFEVTVDPTFTHNPEVTHVQFVDPTEALASHRLYLSPDSSQLVQLTYSWHGHRQSVGLVNLGTGLTTIIAAQNQLLKLLMTLGQCLHHDVQIQAAINQLAIQAITADFDTTLAQAVRLLENPLAIIDLNGEILTRSHTTQLNGTSIHAAVETNRVGRWLLDHGFAPDTPDFLTQVYVAEDQLSAGPMLITPLANGTEPLGYLVMPALNKPLNDRQALLINSIGQVIAGSLVKNQIMPTAESQRDRLLNLLLTEHQGGTFADQFAEQHVQLPTAMVLIRCEPLADQAPMILQQRLQYLMMPRFKQVLVSTYQQQCVALIPISLVAYNQNQFKLTLQQITKQADCRLIVSQHYVNPEDTFAAYTVCERTAQLKTGRGRVIFCEDQFYNLALARVNHLEILPFFINPALRLLLAYDQQNHTELVPTLDVYLRATCNLTRTAKQLYVHPNTLRNRLHHITTLTGCDLRDAETCFKLAASFKLRQFLTQHQYQYRPDIPIPTQD
MGSDKIHHHHHHMQLPGGVQLTYCTNLHAASSLDEVRANLDRYAVPLKARLSPNAPFGIGLRLSGQESAELLEGQALAAFKAFLDERGLYVFTLNGFPYGPFHGQPVKTQVHAPDWRDAERVAYTQRLAEILAFLLPEGGEGGISTSPLSYRGWVEADSRSAWIQMTGNLVRVVETLIRLRQRWGRFIHLDLEPEPDGLLQCSDDLARFFREHLLGGGARDLAARLGIDVEQARAYLRDHVQVCFDTCHVAVMYEDPAQALQTYEQVGLRIGKVQISSALRLPLPPDPEARLDGARALVPFVEDTYLHQVIGRSRDGKIVQYPDLPPALAHVRDPQVTEWRIHFHIPVFLERAGLFASTQPEIVKTLALLREKGFTRHLEIETYTWDVLPEALKLPLLCSIEREYRWVMDVL
MGSDKIHHHHHHMQLSHSLRLMGTTIDIQINSKNAQKQIREVIELLELYKNRFSANDFNSELMAINNNAGIKPIQVHPDLFELITIGKEHSLARPSNLNIAIGPLVQTWRIGFSDAKLPSPSEISEAMILSDPTHILLDSNKQSVFLNQIGMKIDLGALAKGYIADKIMTYLKNEMIDSAIINLGGNVLVHGDNPNRSEGYWVIGIQHPKKKRGKNIGTVKIKNQSVVTSGTYERRLIIDDKEYHHIFDRQTGYPIQTEMASISIVSKQSVDCEIWTTRLFGLSIKEALDILNAVSYIEGIIITKDDRIYLSDGLKHHFQLFYH
MGSDKIHHHHHHMQMENSVTTRSRSPDAVRDSAVDRNAYQAKIDPHALKFQIFQEVLTIKREFKCCGGGCCGCLACIGCCQQECIIETPSMGVLGIIRQRCGCMSSNYDIMDGDGNVIFQIDGPCCCMLCGCQDKEFPIKTANNGTVVGAITKKWGGCFREAFTDADTFAVNFPGDLDVKLKGVLIGATFLIDFMEFEQQSQNRNNGV
MGSDKIHHHHHHMQNLSPTQREILLALTDLYNRQKRMIKSKEVADIIGKDEGTVRNIILSLKVLGLVESKPGPNGGYMPTLKAYEIINNPTLTPILDKLNLYKGMIETDIKVENIEIIDITNPSANRVLLKVEGDLRKLKIGDAVRLGPTPYSRLVIEGLILHLDENSKEIVVDVKRMISIPKEKVKNLISKKLIALKPETSLREASMIFYKEAIRGAPVINQDEKVVGILTTADIIKAFFEGNYTAKVSDYMKTNVISINENEDLLDAIRKMIIYNVGRLLVLDSNNKAVGIVTRTDILRSIAGLEGLWTT
MGSDKIHHHHHHMQPELSEFLRQHRITEVEAIIPDMAGIARGKIIPRNKFESGESMRLPQAVMVQTVTGDYPEDGTLTGVTDPDMVCVPDPSTICLVPWAVDPTAQVIHDCVHFDGSPVEISPRYVLRRVLDLYKAKGWQPVVAPELEFYLVDMNADPDLPLRPPIGRTGRAETGRQSYSIEAVNEFDPLFEDIYEYCEMQGLDIETLIHEVGAAQMEINFVHGDALSLADQVFLFKRTVREAALRHNMYATFMAKPMEGEPGSAMHIHQSLADVHTGRNLFAEEGGVVSPMFHSYLAGLQKYTPALMPIFAPYINSYRRLSRFMAAPINVQWGYDNRTVGFRIPQSTPVARRIENRIPGVDCNPYLAFAATLAAGYLGLTQQLAPTEPIASDGYDLPYQLPRNLEEGISLMAACTPLAGILGDKFVKAYLALKETEYEAFFRVISSWERRHLLLHV
MGSDKIHHHHHHMQSIVQTNFTGIDGLIIRNEPRPALTDNGVLIAMETLPVVPSDWHKETDPNATAEQALQLPRVIGIGGVGTVIEVGHNRDQKLLHQRVLVMHPKGSYQEFILNTNSDWLFPLPINVSNAEAATLTAGPGVALALTEFIKQNPSDHLVITGANSVIGLILCQLLGSTYPGLTPIVSPDSQAYFNQSLPGYPVYSIEHLQLFHGRTLIIDIAGSEPLLQQLIAAVPRASIASIALQTSNLNVPFTFVHEDFNHQIYCHLIKTVASHKLWLPIGRIFSFAETKKAQHYAKDHHSRGRVLVNLN
MGSDKIHHHHHHMQSNRLTESSAEIHDMSLRIYQTPVQHLPEDLYVPPQAFAIWLEQFAGPLDFLLYLVKKNNVDLTRMPILPITEQYLAYISKLDTNHFELAGDYLLMASTLIAIKTELLLPMPEMPTDERDPKAELIERLEEYTQVKAASQRLDNLIRLERDVFLAMVSMPNQDIMNSELPSYSPTLLIDSLFKMQLQPDYQMHSIKVDAVPLADRIASISRQLSTDGARSFHELLDKAQGKIGVVVSFVAVLELIKRQLIGVVANNVDSGVSTATNADGSLSTHSDLLEKLTLEWLA
MGSDKIHHHHHHMQSSSTLFPVALLSAERRGDLSEDVYRIKAGNGPDPSVELAITRLGLADQAQAQGVPVILLHGSFSNRRFWYSPKGVGLGAYLARAGFDVWIPEMRGHGLSPRNHDWKHNSVAAYARDDLPLINAFVREQSGQAPHWVGHSLGGTTLVAALGGGFLAAEQLASVALFGTQISRVYWPLKVPPLAWGAKLVLKRWGQISGPRFKRGPEDEPIGLALESMRWHGLFGRFGDKQNDWWAGLAEVDVPLLAVAGAGDFQDPVWACRKLFEQLGGERKQFLRLGREEGFEAFGHVDMLVSKAAQVQVWPLVERWLHNPLLPVHASTVVAEPVPAS
MGSDKIHHHHHHMQVIKQKLTATCAQLTGYLHQPDTNAHQTNLPAIIIVPGGSYTHIPVAQAESLAMAFAGHGYQAFYLEYTLLTDQQPLGLAPVLDLGRAVNLLRQHAAEWHIDPQQITPAGFSVGGHIVALYNDYWATRVATELNVTPAMLKPNNVVLGYPVISPLLGFPKDDATLATWTPTPNELAADQHVNSDNQPTFIWTTADDPIVPATNTLAYATALATAKIPYELHVFKHGPHGLALANAQTAWKPDANQPHVAHWLTLALEWLADNR
MGSDKIHHHHHHMQWFENPLFSERVEFLESSQYWPAERHAVYQLRSLRRLVHHVAAHVPFYRDFMAASGIRPEDILSIEDIKRFPIIDKKVIQAQPEAFLADGSDRATLLHRTTGGSTGTPLTVWFDGDLLARDKANTEHYMRAIGLDIFTWKSIRLYGDKIDPEITDTGRYWKLVDGRRLVMSCYHITHETAPAYVAELNRFRPRYIHTRPSSILPLAKYILQDGLALDPIRTIVSDGEYLTDGQRAVIERAFQGRLYNIYGHTEACVVGHPCHHSDGLHLMPQVGVTELLDEQGRDVTEPGGRGELVVTGFNNPVMPLIRYRTGDVAYLGEGGCRCGRHYQMLKGIEGRLQDYVIDAAGNPTPLAPAVFNYNDMDWKGIKEFKVIQDTPGELTILIVLEAELAADPAGSKAVLEQRIGAILAGFRISITLVDDIPKTKIGKHRYLDQRLDVKELVSFR
